Reference: the nanobody polyreactivity screen of Harvey et al. (2022)

Assay: yeast display, Sf9 membrane polyspecificity reagent, FACS + sequencing; frameworks hold sequencing errors
Summary of the method: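 Using colony PCR, genes from sorted yeast display clones were amplified, then sequenced on MiSeq at 2 × 250 and filtered by CDR length. The clones had been stained with 10% biotinylated, detergent-solubilized Sf9 membrane reagent for 1 hour at 4 °C and sorted by FACS into low and high (top ~1%) gates on anti-HA and streptavidin fluorescence. Polyreactivity labels come from the gate of origin.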

| Sequence | polyreactivity (PSR sort gate) |
| --- | --- |
| QVQLVESGGGLVQAGGSLRLSCAASGLTFSYYTMGCYRQAPGKERELVARISNRGTNTYYADSVKGRFTISRDNAKNTVYLQMNSLKPEDTAVYYCAKYYYTSIVGYDSWGQGTQVTVSS | low polyreactivity |
| QVQLVESGGGLVQAGGSLRLSCAASGLTFTGYAMGWYRQAPGKERELVAAISSRGGSTYYADSVKGRFTISRDTAKNTVYLQMNRLKPEDTAVYYCNAVVVVGRRDYWGQGTQVTVSS | high polyreactivity |
| QVQLVESGGGLVQAGGSLRLSCAASGLTFTTYAMGWYRQAPGKERELVAAISRRGSRTYYADSVKGRFTISRDNAKNTVYLQMNSLKPEDTAVYYCNALTGSFKTYSFDYWGQGTQVTVSS | high polyreactivity |
| QVQLVESGGGLVQAGGSLRLSCAASGLTFVDNAMGWYRQAPGKERELVAAISFRDGSTYYADSVKGRFTISRDNAKNTVYLQMNSLKPEDTAVYYCAAVGQTHPTSPLSTKYDYWGQGTQVTVSS | low polyreactivity |
| QVQLVESGGGLVQAGGSLRLSCAASGLTFVDNAMGWYRQAPGKERELVAAISYNGGSTYYADSVKGRFTISRDNAKNTVYFQINSLKPEDTAVYYCAADISVGRYVDMDYWGQGTKVTVSS | low polyreactivity |
| QVQLVESGGGLVQAGGSLRLSCAASGLTFVDYAMGWYRQAPGKERELVAAISWSGGSTYYADSVKGRFTISRDIAKNTVYLQMNSLKPEDTAVYYCAAETQGWYPWGFYWGQCTQVTVSS | low polyreactivity |
| QVQLVESGGGLVQAGGSLRLSCAASGLTFVDYDMGWYRQAPGKERELVADINSGGYTYYADSVKGRFTISRDNAKNTVYLQMNSLKPEDTAVYYCAADDGWGYISSYDYEYWGQGTQVTVSS | high polyreactivity |
| QVQLVESGGGLVQAGGSLRLSCAASGLTFVFYAMGWYRQAPGKERELVAAISRRGGRTYYADSVKGRYTISRDNAKNTVYVQMNSLKPEDTAVYYCNARVRSHRCNYWGQGTQVTVSS | high polyreactivity |
| QVQLVESGGGLVQAGGSLRLSCAASGLTFVGNAMGWYRQAPGKERELVASITIGTSTYYADSVKGRFTISRDNAKNTVYLQMNRLKPEDTAVYYCAAEEVFQVYGLALIYDYWGQGTQVTVSS | high polyreactivity |
| QVQLVESGGGLVQAGGSLRLSCAASGLTFVKNAMGLYRQAPRKERELVATISSGGSTNYADSVKGRFTISRDNAKNTVYLQMNSLKPEETAVYYCNKDYTGVLLWIWWDRYDYWGQGTQVTVSS | high polyreactivity |
| QVQLVESGGGLVQAGGSLRLSCAASGLTFVKYAMGWYRPAPGKERELVAAISRSGGRTYYADSVKGRFTISRDNAKNTVYLQMNSLKPEDTAVYYCNADHVRGNHGYDYWGQGTQVTVSS | high polyreactivity |
| QVQLVESGGGLVQAGGSLRLSCAASGLTFVPNAMGWSRQAPGKERELVAGITSAGSTYYADSVKGRFTISRDNAKNTVYLQMNSLKPEDSAVYYCAKQFYRGFRYGYWGQGTQVTVSS | high polyreactivity |
| QVQLVESGGGLVQAGGSLRLSCAASGLTFVPNARGWYRQAPGKERELVAASSNNGGRTYYADSVKGRFTISRDNAKKTVYLQMNSLKPEDTAVYYCAKYLSPGERHSYDYWGQGTQVTVSS | high polyreactivity |
| QVQLVESGGGLVQAGGSLRLSCAASGLTFVQNAMGWYRQAPGKERELVAAISSRGGSTYYADSVKGRFTISRDNAKNTVYLQMNSLKPEDTAVYYCNTRSITKYDYWRRGYGYWGQGTQVTVSS | high polyreactivity |
| QVQLVESGGGLVQAGGSLRLSCAASGLTFVVYAMGWYRPAPGKERELVAASDFSGGDTYYADSVKGRFTISRDNAKNTVYLQRNSLKPEDTADYYCAAEYYGPSYYIGFDYWGQGTQVTVSS | high polyreactivity |
| QVQLVESGGGLVQAGGSLRLSCAASGLTFVWYAMGWYRQAPGKERELVAAIRGGGSTYYADSVKGRFTISRDNAKNTVYLQMNSLKPEDTAVYYCAAPYARCLFYLLHYPRFSYDYWGQGTQVTVSS | high polyreactivity |
| QVQLVESGGGLVQAGGSLRLSCAASGLTFVYYDMGWYRQAPGKERELVADITDGSSTNYADSVKGRFTISRDNAKNTVYLQMYSLKREDTAVYYCAVDAVFQGSLGDYEYDYWGQGTQVTVSS | low polyreactivity |
| QVQLVESGGGLVQAGGSLRLSCAASGLTFWAYTMGWYRQAPGKERELVAAITSSGGRTYYADSVKGRFTISRDNAKNTVYLQMNSLKPEDTAVYYCAALGGRYRASTYGYWGQGTQVTVSS | high polyreactivity |
| QVQLVESGGGLVQAGGSLRLSCAASGLTFWDNAMGWYRQAPGKERELVAAITRSGGSTHYADSVKGRFTISRDNAKNTVYLQMNSLKPEDTAVYYCAADYDFYDFSYQSWSEENYWGQGTQVTVSS | low polyreactivity |
| QVQLVESGGGLVQAGGSLRLSCAASGLTFWEYAMGWYRQAPGQERELVAAITRGGNTYYADSVKGRFTISRDNAKNTVSLQMNSLKPEDTAVYYCAARGYYLTGGCRRYYYWGQGTQVTVSS | high polyreactivity |
| QVQLVESGGGLVQAGGSLRLSCAASGLTFWFNAMGWYRPAPGKERALVGAIRNRGGSTYYADSVKGRFTISRDTAKNTVYLQMNSLKPEDTAVYYCAAVSWFLVGPRYYYWGQGTQVTVSS | high polyreactivity |
| QVQLVESGGGLVQAGGSLRLSCAASGLTFWGYAMGWYRQAPGKEREFVASISSGGGSTYYADSVKGRFTISRDNAKNTVYLQMNSLKPEDTAVYYCNADRTQDRNPYTYATFDYWGQGTQVTVSS | low polyreactivity |

| Sequence | polyreactivity (PSR sort gate) |
| --- | --- |
| QVQLVESGGGLVQAGGSLRLSCAASGLTFWLNAMGWYRQAPGKERELVAAIRYSGVGTYADSVKGRFTISRDNAKNTVYLQMNSLKPEDTAVYYCAALYNLGYPQFDYWGQGTQVTVSS | low polyreactivity |
| QVQLVESGGGLVQAGGSLRLSCAASGLTFWPNAMGWYRQAPGKERELVAAISYTGGITYYADSVKGRFTISRDNAKNTDYLQMNSLKPEDTAVYSCNKGRRGYYSVRRYDYWGQGTQVTVSS | low polyreactivity |
| QVQLVESGGGLVQAGGSLRLSCAASGLTFWVYAMGWYRQAPGKERELVAAISGSGARTYYADSVKGRFTISRDNAKNTVYLQMNSLKPEDTAVYYCAARAVRATAKYEYWGQGTQVTVSS | high polyreactivity |
| QVQLVESGGGLVQAGGSLRLSCAASGLTFWYNAMGWYRQAPGKERELVAAINSGGRTNYADSVKGRFTISRDNAKNTVYLQMNSLKPEDTAVYYCAAVRHWTVGWTYYYWGQGTQVTVSS | high polyreactivity |
| QVQLVESGGGLVQAGGSLRLSCAASGLTFYDYAMGWYRQAPGKERELVAAISSGGSTYYADSVKGRFTISRDNAKNTVYLHMNSLKPEDTAVYYCAARPAYRVHAMGYWGQGTQVTVSS | low polyreactivity |
| QVQLVESGGGLVQAGGSLRLSCAASGLTFYEYAMGWYTQAPGKERELVAAITASGGSTYYADSVKGRFTISRDNAKNTVYLQMNSLKPEDSAVYYCAAVDYVRYYPDEFDYWGQGTQVTVSS | low polyreactivity |
| QVQLVESGGGLVQAGGSLRLSCAASGLTFYKNVMGWYRQAPGKERELVAAISSSGGSTYYADSVKGRFTISRDNAKNTVYLQMNSLKPDDTAVYYGAADDPLYTPYEFDYWGQGTQVTVSS | low polyreactivity |
| QVQLVESGGGLVQAGGSLRLSCAASGLTFYLYDMGWYRQAPGKERELVAAISRRGTSTYYADSVKGRFTISRDNAKNTVYLQMNSLKPEDTAVYYCAADRKFGRDYWGQGTQVTVSS | high polyreactivity |
| QVQLVESGGGLVQAGGSLRLSCAASGLTFYRNAMGWYRQAPGKERELVAAITSRGGSTYYADSVKGRFTISRDNAKNTVYLQMNSLKPEDTAVYYCAAYSTLITGRDYGYWGQGTQVTVSS | high polyreactivity |
| QVQLVESGGGLVQAGGSLRLSCAASGLTFYRYAMGLYRQAPGKERELVAGITRRGGSTYYADSVKGRFTISRDNAKNTVYLQMNSLKPEDTSVYYCNVDGISSSYPELDYWGQGTQVTVSS | low polyreactivity |
| QVQLVESGGGLVQAGGSLRLSCAASGLTFYRYAMGWYRQAPWKERDFVAAINRNGGSTYYADSVKGRFTISRDNAKNTVYLEMNSLKPEDTAVYYCNARVSGTRSGRVLRDYWGQGTQVTVSS | high polyreactivity |
| QVQLVESGGGLVQAGGSLRLSCAASGLTFYSYAMGWSRQAPGKERELVAAISKSGGSTFYADSVKGRFTISRDNAKNTVYLQMNSLKPEDTAVYYCNARRRHEGSPPYGYWGQGTQVTVSS | high polyreactivity |
| QVQLVESGGGLVQAGGSLRLSCAASGLTFYSYAMGWYRQAPGKERELVAAISKSGGSTYYADSVKGRFTISRDNAKNTVYLQMNSLKPEDTAVYYCNALTKTGTPPDYDYWGQGTQVTVSS | high polyreactivity |
| QVQLVESGGGLVQAGGSLRLSCAASGLTFYTNAMGWYRQAPGKERELVAAITSSGGRTYYADSVKGRFTISRDNAKNTVYLQMNSLKPEDTAVYYCAADARRPSIPEMYYCGQGTQVTVSS | high polyreactivity |
| QVQLVESGGGLVQAGGSLRLSCAASGLTFYVYGMGWYRQAPGKERELVASITSGGNTYYADSVKGRFTISRDNAKNTVYLQMNSLKPEDTAVYYCAVTAIALYYSSGYYWGQGTQVTVSS | low polyreactivity |
| QVQLVESGGGLVQAGGSLRLSCAASGLTFYYNAMGWYRPAPGKERELVAAITWSTDSTYYADSVKGRFTISRDNAKNTVYLQMNSLKPEDTAVYYCAAAVDAFTNKQYYYWGQGTQVTVSS | low polyreactivity |
| QVQLVESGGGLVQAGGSLRLSCAASGLTFYYYAKGWYRQAPGKERDFVAAISRSGGTTYYADSVKGRYTISRDNAKNTVYLQMNSLKPEDTAVYYCNAQWCRYWPSQVIFDYWGQGTQVTVSS | high polyreactivity |
| QVQLVESGGGLVQAGGSLRLSCAASGLTFYYYAMGWYRQAPGKERELVAAISGTGGSAYYADSVKGRFTISRDNAKNTVYLQMNSLKPEDTAVYYCAARYLRYKGTGATSAYDYWGQGTQVTVSS | high polyreactivity |
| QVQLVESGGGLVQAGGSLRLSCAASGLTFYYYAMGWYRQAPGKERELVAAISIGGSTDYADSAKGRFTISRDNAKNTVYLQMNRLKPEDTAVYYCNVDDNSEYDYWGQGTQVTVSS | low polyreactivity |
| QVQLVESGGGLVQAGGSLRLSCAASGLTFYYYAMGWYRQAPGKERELVAAISYSGSRTYYADSVKGRFTISRDNAKNTVYLQMNSLKPEDTAVYYCAARLSDGGGYWGQGTQVTVSS | high polyreactivity |
| QVQLVESGGGLVQAGGSLRLSCAASGLTFYYYAMGWYRQAPGKERELVASITKRGGSTYYADSVKGRFTISRDNAKNTVYLQMNSLKPEDTAVYYCAAQYRSQGQPKGGVLYYYWGQGTQVTVSS | high polyreactivity |
